According to patent US20210290732A1, “GLP-1R and GCGR Agonists, Formulations, and Methods of Use” (Spitfire Pharma LLC, priority 2020, published 2021):
Where “and” joins values, the source holds several entries; their conditions need not be identical. Equal entries are not always repeated. Entries after “also recorded” stand apart in the source; their conditions may differ.

What was measured:
[1] = in vitro stability in pooled human plasma; conditions: 1 to 10 μM; GLP-1 7-36 amide at 4 h, analogs at 8 h
Procedure: The stability test was carried out at Climax Laboratories, Inc. (San Jose, Calif.).

[2] = molecular target: bovine serum albumin (BSA) (bovine, UniProt P02769 25-607); experiment: method not stated (data not shown)
Sequence of bovine serum albumin (BSA) (P02769 25-607 limits assumed): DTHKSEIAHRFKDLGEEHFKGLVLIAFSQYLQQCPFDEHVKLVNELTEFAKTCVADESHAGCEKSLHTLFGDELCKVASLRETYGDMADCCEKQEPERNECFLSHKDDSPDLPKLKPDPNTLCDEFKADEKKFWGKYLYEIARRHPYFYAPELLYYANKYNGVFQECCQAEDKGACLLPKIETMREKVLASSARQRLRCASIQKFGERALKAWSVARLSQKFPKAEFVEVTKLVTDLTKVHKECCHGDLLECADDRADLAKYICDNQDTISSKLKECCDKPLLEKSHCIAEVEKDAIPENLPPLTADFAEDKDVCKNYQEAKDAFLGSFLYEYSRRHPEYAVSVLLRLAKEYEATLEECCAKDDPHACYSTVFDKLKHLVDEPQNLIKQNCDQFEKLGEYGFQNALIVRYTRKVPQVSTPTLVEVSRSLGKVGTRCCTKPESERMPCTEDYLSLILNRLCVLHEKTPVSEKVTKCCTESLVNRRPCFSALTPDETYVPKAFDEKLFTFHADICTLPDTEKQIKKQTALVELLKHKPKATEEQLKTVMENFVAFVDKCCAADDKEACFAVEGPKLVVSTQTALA

[3] = molecular target: plasma proteins of dog; experiment: ultracentrifugation of spiked plasma (15000 ng/mL), 37 C, 6 h, LC-MS of supernatant
[4] = molecular target: plasma proteins of human; experiment: as above
[5] = molecular target: plasma proteins of monkey; experiment: as above
[6] = molecular target: plasma proteins of rat; experiment: as above
[7] = molecular target: plasma proteins of dog; experiment: ultracentrifugation of spiked plasma (15000 ng/mL), 37 C, 6 h, LC-MS of supernatant; supernatant value BLQ, extrapolated
[8] = molecular target: plasma proteins of human; experiment: as above

For CC[C@H](C)[C@H](NC(=O)[C@H](Cc1ccccc1)NC(=O)[C@H](CCC(=O)O)NC(=O)[C@H](CCCCN)NC(=O)[C@H](C)NC(=O)[C@H](C)NC(=O)[C@H](CCC(N)=O)NC(=O)CNC(=O)[C@H](CCC(=O)O)NC(=O)[C@H](CC(C)C)NC(=O)[C@H](Cc1ccc(O)cc1)NC(=O)[C@H](CO)NC(=O)[C@H](CO)NC(=O)[C@@H](NC(=O)[C@H](CC(=O)O)NC(=O)[C@H](CO)NC(=O)[C@@H](NC(=O)[C@H](Cc1ccccc1)NC(=O)[C@@H](NC(=O)CNC(=O)[C@H](CCC(=O)O)NC(=O)[C@H](C)NC(=O)[C@@H](N)Cc1c[nH]cn1)[C@@H](C)O)[C@@H](C)O)C(C)C)C(=O)N[C@@H](C)C(=O)N[C@@H](Cc1c[nH]c2ccccc12)C(=O)N[C@@H](CC(C)C)C(=O)N[C@H](C(=O)N[C@@H](CCCCN)C(=O)NCC(=O)N[C@@H](CCCNC(=N)N)C(N)=O)C(C)C [GLP-1 7-36 amide], the “stability in pooled human plasma (compound level remaining)” value [1] was “rapidly destroyed to below quantitation limit; also recorded: rapid destruction”.

B1: EU-A1873 (SEQ ID NO: 1) (peptide)
peptide: HXQGTFTSDYSKYLDEKAAKEFIQWLLQT
modifications: Aib at 2; side chain lactam between Glu16 and Lys20; Lys17 acylated with Z17CO2H / GC18c (1-(17-carboxyheptadecyloxy) beta-D-glucuronyl); C-terminal amide (NH2)
notes: Synthetic 29-residue peptide amide; also called ALT-801; analogue 17
For B1, the “percent bound to BSA” value [2] was over 99%, the Percentage of ALT-801 Bound [3] was 99.7% and 99.8% and the Percentage of ALT-801 Bound, Mean [3] was 99.8%. For the same molecule, the Percentage of ALT-801 Unbound [3] was 0.265% and 0.223%, the Percentage of ALT-801 Unbound, Mean [3] was 0.205% and the Percentage of ALT-801 Bound [4] was 99.7%. The Percentage of ALT-801 Bound, Mean [4] was 99.8%, the Percentage of ALT-801 Unbound [4] was 0.309% and the Percentage of ALT-801 Unbound, Mean [4] was 0.213%. It also gave a Percentage of ALT-801 Bound [5] of 100%, a Percentage of ALT-801 Bound, Mean [5] of 100% and a Percentage of ALT-801 Unbound, Mean [5] of 0.0487%. The Percentage of ALT-801 Bound [6] was 99.7% and 99.8%, the Percentage of ALT-801 Bound, Mean [6] was 99.8% and the Percentage of ALT-801 Unbound [6] was 0.334% and 0.204% and 0.184%. It also gave a Percentage of ALT-801 Unbound, Mean [6] of 0.241%, a Percentage of ALT-801 Bound [7] of 99.9% and a Percentage of ALT-801 Unbound [7] of 0.126%. It also gave a Percentage of ALT-801 Bound [8] of 99.9% and a Percentage of ALT-801 Unbound [8] of 0.117%.
